Test: yeast display, Sf9 membrane polyspecificity reagent, FACS + sequencing; frameworks hold sequencing errors
Procedure, shortened: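 Synthetic nanobody libraries on Saccharomyces cerevisiae BJ5465 were galactose-induced for 36–48 hours, stained 1 hour at 4 °C with 10% biotinylated, detergent-solubilized Sf9 membrane reagent and enriched on streptavidin microbeads. FACS then separated cells into low and high (top ~1%) gates by anti-HA (expression) and streptavidin (reagent binding) fluorescence. Genes were colony-PCR amplified, MiSeq 2 × 250 sequenced and CDR-length filtered. A clone's polyreactivity label is that of its gate of origin.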

Row | Sequence | polyreactivity (PSR sort gate)
1 | QVQLVESGGGLVQAGGSLRLSCAASGFTFYYYAMGWYRQAPGKEREMVAAISGGGGSTYYADSVKGRFTISRDNAKNTVYLQMNSLKPEDTAVFYCAAEYRGYPEDEYWGQGTQVTVSS | high polyreactivity
2 | QVQLVESGGGLVQAGGSLRLSCAASGLTFGWYAMGWYRQAPGKERELVASITRRSGSTYYADSVKGRFTISRDNAKNTVYLQMNSLKPEDTAVYYCNAVPGYVYYYQYWGQGTQVTVSS | high polyreactivity
3 | QVKLVESGGGLVQAGGRLSLSCAASGLTLSGNAMGWYRQAPGKDRELVAAITGRGGSTTYADSVKGRFTISRDNAKNTVYLQMNSVKPEDTAVYYCAATRYSWNNRVSRRHRYEYWGQGTQVTVSS | high polyreactivity
4 | QVQLVESGGGLVQAGGSLRLSCAASGRTFAGYTMGWYRQAPGKERELVAAITKSGGSTYYADSVKGRFTISRDNEKNTVYLQMNSLKPEDTAVYYCAARYIPSRYGTGCGYYSWGQGTQVTVSS | high polyreactivity
5 | QVQLVESGGGLVQAGGSLRLSCAASASNSNGMTWYGIDRRLGRKELVAGIRSAGSTNYADSVKGRFTISRDNAKNTFYLQMNSLKPEDTAGYYCAKDYRWVWRKYGYWGQGTQVTVSS | low polyreactivity
6 | QVQLVESGGGLVQAGGSLRLSCAASGRIFGRYAMGWYRQAPGKEREFVATITSRGGNTYYADSVKGRFTISRDTAKNSVYLQMNSLKPEDTAVYYCNADYLWFNFYYWGQGTQVTVSS | low polyreactivity
7 | QVQLVESGGGLVQAGGSLRLSCDASGSTIPTYAMGWYRQAPGKERELVASISVTTGSTYYADSVKGRFTISRDNAKNTVYLNMKSLKPEDTAVYFCAKRTYSRKFRGSYNYWGQGTEVTVSS | high polyreactivity
8 | QVQLVESGGGLVQAGGSLRLSCAASGFTFARNAMGWYRQAPGKEWELGATISTSGGSTYYADSVKGRFTISRDNAKNTVYLQMNSLKPEDSAVYYFAASYWKGYRRDYWGQGTQVTVSS | low polyreactivity
9 | QVQLVDSGGRLVQAGGRLRLTCAASGFILSYNMGWYRQAPGKERELVATISYNDVSTYYADSVKGRFTISRDNAKNTVYLQMNSLKPEDTAVDYCNAQFPIITRRGYDYWGQGTQVNVSS | high polyreactivity
10 | QVQLVESGGGLVQAGGSLRLSCAASGRTFDRNARGWYRQAPGKEREVVARITIDGSTNYADSVKGRFTISRDNAKNTVYLQMNSLKPEETAVYYCATDQLSLSWYFRPYDYCYWGQVTQVTVSS | high polyreactivity
11 | QVQLVESGGGLVQAGGSLRLSCAASGFTFRVYAMGWYRQAPGKERELVAAITKRGGSTYYADSVRGRFTISRDNAKNTVYLQMNSLKPEDTAVYYCATENTPHYASHGYWGQGTQVTVSS | high polyreactivity
12 | QVQIVESGGGLVQAGGSLRLSCAASGITFDTYVMGWYRQAPGKERELVATISESVGNTYYADSVKGRFTISRDNEKNTVYLQMNILKPEDTAVDYCYTSRYYTIYTYYYWGQGTQVTVSS | low polyreactivity
13 | QVQLVESGGGLVQAGGSLRLSCAASGITLSVYAMGWYRQAPRKERELVASISSGGTSTYYADSVKGRFTISRDNAKNTVYLLMISLKPEDTAVYYCAAYSYYTGDQYSYDYWGQGTQVTVSS | low polyreactivity
14 | QVQLVESGGGLVQAGGSLRLSCAASGIIFRGYFMGWYRQATGKERELVAAISTSGGRTSYADSVKGRFTISRDNAKNTVYLQMNSLKPEDTAVYYCAARPLYSYSHWGYGYWGQGTQVTVSS | high polyreactivity
15 | QVQLVESGGGLVQAGGSLRLSCAASGRIFGYYAMGWYRQAPGKERELVADITESGTSTYYADSVKGRFTISRDNAKNTVYLHMNILKPEDTAVYYCAAGYWWRYALYGYWGQGTQVTVSS | low polyreactivity
16 | QVQLVESGGGLVQAGGSLRLTCAASGSTFSYYAMGCYRQAPGKERELVAAISTRGSSTYYADSVKGRFTISRDNAKITVYVQMNSLKPEDTAVYYFAVDQYKYDCFYDYYGYTYGYWGQGTQVTVSS | high polyreactivity
17 | QVQLVESGGGLVQAGGSLRLSCAASGSIFAQYTMGWYRQAPGKERELVAVISFRGGSTYYADSVKGRFTISRDNAKNTVYLQMNSLKPEDTAVYYCATVGTYPGYGEFDYWGQGTQVTVSS | low polyreactivity
18 | QVQLVESGGGLVQAGGSLRLSCAASGSTFLYYAMGWYRQAPGKERELVAAIRVGGGRTYYADSVKGRFTISRDNAKNTVYLQMNSLKPEDTAVYYCAAKRRHRVPFDYWGQGTQVTVSS | high polyreactivity
19 | QVQLVESGGGLVQAGGSLRLSCAASGYILQINAMGWYRQAPGKERELVAAISISGGNTYYADSVKGRFTISRDNAKNTVYLQMNSLKPEDTAVYYCNAGGPLQPYDYWGQGTQVTVSS | low polyreactivity
20 | QVQLVESGGGLVQAGGSLRLSCAASGRTFYQNVMGWYRPAPGKERELVAAISQRGGRTYYADSVKGRFTISRDNAKNTVYLQMNSLKPEDTAVYYCNADSTVWPYDYWGQGTQVTVSS | low polyreactivity
21 | QVQLVESGGGLVQAGGSLRLSCAASGNIFYGYAMGWYRQAPGKERELVAAISGSSTYYADSVKGRFTISRDNAKNTVYLEMNSLKPEDTAVYYCAVPQYLYLQAGHGYRYYYWGQGTQVTVSS | high polyreactivity
22 | QVQLVESGGGLVQAGGSLRLSCAASASIFYYYAMGWYRQEPGKERELVAALSDSGSTNYADSVKGRFTISRDNAKNTVYLQLNSLKPEDTAVYYCAAGFGSRRYRGVYYKMYYRGQGTQVTVSS | high polyreactivity

Row | Sequence | polyreactivity (PSR sort gate)
23 | QVQLVESGGGLVQAGGSLRLSCAASGSIFYRYAMGWYRQAPGKESELVAAITQSTDSTYYADSVKGRFTISRDNAKNTVYLQMNSLKPEDTAVYYCAAYLVYYRPYAYGYWGQGTQVTVSS | low polyreactivity
24 | QVQLVESGGGLVQAGGSLRLSCAASGSIFVRNAMGWYRQAPGKERELVAAISWRGGSTYYADSVKGRFTISRDNAKNTVYLQMNSLKPEDTAGYYCAARRWSPRSGLGYGYWGQGTQVTVSS | high polyreactivity
25 | QVQLVESGGGLVQAGGSLRLSCAASGRTFERYAMGWYRQAPGKERELVAAISSGGSTNYADSVKGRFTISRDNAKNTVYLQMNSLKPEDTAVYYCNVDWAVKDPSYVSQGEGDYWGQGTQVTVSS | low polyreactivity
26 | QVHLVESGGGLVQAGGSLRLSCAASGRIFHYYMVWYTQAPGKERELVAVISSGDGTYYADSVKRRFTISRDNAKNTVYLQMNSLKPEDTAVYYCAADAPREYVDHYKYDDDYWGQGTQETVSS | low polyreactivity
27 | QVQLVESGGGLVQAGGSLRLSCAASGSTFVTNAMGWYRQAPGTEREFVAAISWISTSTYYADSVKGRFTISRDNAKNTVYLQMNSLKPEDTAVYYCNATTFAFSPSLKGAYGYWGQGTQVTVSS | low polyreactivity
28 | QVQLVESGGGLVQAGGSLRLSCAASGFTFTDYTMGWYRQAPGKEREFVAAISYRGSNTYYADSVKGRFTISRDNAKNTVYLQMNSLKPEDTAVYYCAADSYRYKYNYWGQGTQVTVSS | high polyreactivity
29 | QVKLVESGGGLVQAGGSLLLSCDASGIIFKYYAMGWYRQAPGKERELVARITARGGRTYYADSVKGRFTISRDNAKNTVYLQMNSLKPEDTAFYYCAKKLRGWHTIITDYDYWGQGTQLTVSS | low polyreactivity
30 | QVQLVESGVGLVQAVGSHRLSCAASGFTIINNDMGWYRQAPGKEREFVAAISDSDGTTYYADSVKGRFSISRDNAKNTVYLQMNSLKPEDTAVYYCAADVVPTWEDEYWGQGTQVTVSS | low polyreactivity
31 | QVQLVESGGGLVQAGGSLRLSCAASGIIIKRNAMGWYRQAPGKEMELVAAISRSGGSTYYSDSVKGRFTISRDIAMNTVYLQMNSLKAEDTAVYYCAADWSEYPYDYWGQGTQVTVSS | low polyreactivity
32 | QVQLVESGGGLVQAGRSLRLSSAASGNTFAGNAMGWYRQAPGKERELVAAISWSGTRTYYADSVKGRFTISRDNAKNTVYLQMNSLKPEDTAVYYCAKLSTNKEYYWGQGTQVTVSS | high polyreactivity
33 | QVQLEESGGGLVQAGGSLRLICAAYGSIIPYNAMGWYRQQPGEFVDAISYSSGSTYYADSVKGRFTISRDNAKNTVYLQMNSLKPEDTAVYYCAAGSWYPPSYVWLRRYDYWGQGTQVTVSS | low polyreactivity
34 | QVQLVESGGGLVQAVGSLRLSCAASGSTFHWYDMGWYRQAPGKERELVPGINSSGDGTYYADSVKGRFTISRDNAKNTVYLQMNSLKPEDTAVYDCAAPWWYYGVPYQTNKYDYWGQGTQVTLSS | low polyreactivity
35 | QVQLVESGGGLVQAGGSLRLTCAASGSIFYVNAMGWYRQAPGKERELVAAISVRGGRTYYADSVKGRFTISRDNAKNTVYLQMNSLKPEDTAVYYCATRISTVGRYDYWGQGTQVTVSS | high polyreactivity
36 | QDQLEESGGGLVQAGGSLRLSCAATGITFSSNAMGWYRQAPGKERELVAAISWSGGSTYYADSVKGRFTISRDYAKNTVYLQMNSLKPEDTAVYYCNASKHNPYGGDYWGQGTQVTVSS | high polyreactivity
37 | QVQLVESGGGLVQAGGSLRLSCAASGRTFWSYAMGWYRQAPGKERELVAAINSGGSTYYADSVKGRFTISRDNAKNTVYLQMNSLKPEDTAVYYFAADTWYGFDWGQGTQVTVSS | high polyreactivity
38 | QVQLVESGGGLVQAGGSLRLSCAASGSTFYYYAMGWYRQAPGKEMELVAAISGSGGNTYYADSVKGRFTISRDNAKNTVYLQMNSLKPEDTAVYYCAADYGYPLGVSWYGYGYWGQGTQVTVSS | low polyreactivity
39 | QVQLVESGGGLVQAGGSLRLSCAASGRIFLANAMGWSRQAPGKERELVAAISLSGGRTYYADSVKGRFTISRDNAKNTVYLQMNSLKPEDTAVYYCAAEFYPIRYYGGYDYWGQGTLVTVSS | low polyreactivity
40 | QVQLVESGGGLVQAGGSLRLSCAASGRTFKKYAMGWYRQAPGKERELVAAITSRGGSTYYADSVKGRFTISRDNAKNTVYLQMNSLKPEDTAVYYCNAVRGWLYVFSYPYWDDEYWGQGTQVTVSS | high polyreactivity
41 | QVQLVESGGGLVQAGGSLRLSCAASGRTIYQYAMGWYRQAPGKERELVAAISRGGSTNYADSLKGRFTISRDNAKNTVYLQMNSLKPEDTAVYYCASWYKFLSLKRLYERDYWGQGTQVTVSS | high polyreactivity
42 | QVQLVESGGGLVQAGGSLRLSCAASGRTFRYYAMGWYRQAPGKERELVADISWSGGRTTYADSVKGRFTISRDNAKNTVYLQMNSLKPEDTAVYYCAKVLYYPSNDYWGQGSQVTVSS | high polyreactivity
43 | QVQLEESGGGLVQAGGSLRLSCAASGGTFGQYTMGWYRQAPGKERELVAAISTRGGSTNYADSVKGRFTISRDNAKNTVYLQMNSLKPEDTAVYYCAAKDKGRYYENVGRRGLDYWGQGTQVTVSS | high polyreactivity
